Source: publication PMC3319870 (New Biotechnology, 2011)

Molecular target: Fyn SH3 domain, His6-tagged SUMO fusion (human, UniProt P06241 82-143)
Assay: ELISA

Chain of Fyn SH3 domain, His6-tagged SUMO fusion (P06241 82-143): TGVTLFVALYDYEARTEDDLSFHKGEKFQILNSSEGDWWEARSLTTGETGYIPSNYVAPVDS

VSLARRPLPPLPGGK [proline-rich peptide VSLARRPLPPLPGGK]
IC50: ~440 nM
